Data published in US20200377596A1 (AMPHIVENA THERAPEUTICS, published 2020).

Target: CD33 (UniProt P20138 18-364, limits assumed)
Test: cell-based or functional assay

Sequence of CD33 (P20138 18-364 limits assumed): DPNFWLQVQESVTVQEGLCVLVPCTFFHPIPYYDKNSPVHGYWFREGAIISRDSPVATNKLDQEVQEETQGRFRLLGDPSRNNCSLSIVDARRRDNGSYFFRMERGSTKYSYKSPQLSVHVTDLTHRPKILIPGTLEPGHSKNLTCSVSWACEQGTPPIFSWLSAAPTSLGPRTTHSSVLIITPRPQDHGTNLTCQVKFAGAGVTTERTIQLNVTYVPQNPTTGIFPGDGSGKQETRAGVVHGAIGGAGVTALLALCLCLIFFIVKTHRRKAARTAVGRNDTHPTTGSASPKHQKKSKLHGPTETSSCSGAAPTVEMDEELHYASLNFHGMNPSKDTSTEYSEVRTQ

proliferation of CD4+ and CD8+ T cells: > 2 fold
B1: AMV564 (bispecific antibody)
chain: DIQMTQSPSSLSASVGDRVTITCRSSTGAVTTSNYANWVQQKPGKAPKALIGGTNKRAPGVPSRFSGSLIGDKATLTISSLQPEDFATYYCALWYSNLWVFGQGTKVEIKGGSGGSQVQLVQSGAEVKKPGASVKVSCKASGYTFTSYDINWVRQAPGQGLEWMGWMNPNSGNTGFAQKFQGRVTMTRDTSTSTVYMELSSLRSEDTAVYYCARDRANTDYSLGMDVWGQGTLVTVSSGGSGQSVLTQPPSASGTPGQRVTISCSGSRSNIGSNTVNWYQQLPGTAPKLLIYGNNQRPSGVPDRFSGSKSGTSASLAISGLQSEDEADYYCATWDDSLIGWVFGGGTKLTVLGGSGGSEVQLVESGGGLVQPGGSLRLSCAASGFTFSTYAMNWVRQAPGKGLEWVGRIRSKYNNYATYYADSVKDRFTISRDDSKNSLYLQMNSLKTEDTAVYYCARHGNFGNSYVSYFAYWGQGTLVTVSS
